Data as given in patent US7371828.
Where a chain is given by its changes, count along the chain named. In names and notes the source's numbering stands.

Molecular target: T1, MBP from bovine brain (Sigma), P02687
T1 chain: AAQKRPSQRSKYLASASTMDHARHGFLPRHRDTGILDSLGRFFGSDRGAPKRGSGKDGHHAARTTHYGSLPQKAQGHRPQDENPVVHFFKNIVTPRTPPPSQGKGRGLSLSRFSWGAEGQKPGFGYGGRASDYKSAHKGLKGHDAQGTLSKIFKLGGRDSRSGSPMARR

B1: human ERK5 (hERK5) wild type protein (protein)
chain: MSSPPPGGSGFYRQEVTKTAWEVRAVYRDLQPVGSGAYGAVCSAVDGRTGAKVAIKKLYRPFGSELFAKLAYRELRLLKHMRHENVIGLLDVFTPDETLDDFTDFYLVMPFMGTDLGKLMKHEKLGEDRIQFLVYQMMKGLRYIHAAGIIHRDLKPGNLAVNEDCELKILDFGLARQADSEMTGYVVTRWYRAPEVILNWIAYTQTVDIWSVGCIMAEMITGKTLFKGSDHLDQLKEIMKVTGTPPAEFVQRLQSDEAKNYMKGLPELEKKDFASILTNASPLAVNLLEKMLVLDADIRLTAGEFLSHPYFESLHDTEDEPQVQKYDDSFDYFDRTLDEWKPCYLQRGAQLQASPAAGGQGLQGDASVKISGLRGGSEDHLHLPPERGLSLPP
  MBP kinase activity (32P incorporation in MBP-containing polyacrylamide gel): A predominant signal is observed at 56 kD; A weaker signal at the position of the 44/46 kD bands

B2: hERK5 Y185F mutant (protein)
chain: B1 chain with Y185F
  MBP kinase activity (32P incorporation in MBP-containing polyacrylamide gel): the lack of ^32P incorporation in lanes 5 and 6
  MBP phosphorylation assay: this mutant is indeed kinase negative
